These results are taken from paper PMC10786891, “Massively parallel profiling of RNA-targeting CRISPR-Cas13d”.

T1: EsCas13d, nuclease-dead (Eubacterium siraeum, UniProt B0MS50, R295A;H300A;R849A;H854A)
T1 sequence: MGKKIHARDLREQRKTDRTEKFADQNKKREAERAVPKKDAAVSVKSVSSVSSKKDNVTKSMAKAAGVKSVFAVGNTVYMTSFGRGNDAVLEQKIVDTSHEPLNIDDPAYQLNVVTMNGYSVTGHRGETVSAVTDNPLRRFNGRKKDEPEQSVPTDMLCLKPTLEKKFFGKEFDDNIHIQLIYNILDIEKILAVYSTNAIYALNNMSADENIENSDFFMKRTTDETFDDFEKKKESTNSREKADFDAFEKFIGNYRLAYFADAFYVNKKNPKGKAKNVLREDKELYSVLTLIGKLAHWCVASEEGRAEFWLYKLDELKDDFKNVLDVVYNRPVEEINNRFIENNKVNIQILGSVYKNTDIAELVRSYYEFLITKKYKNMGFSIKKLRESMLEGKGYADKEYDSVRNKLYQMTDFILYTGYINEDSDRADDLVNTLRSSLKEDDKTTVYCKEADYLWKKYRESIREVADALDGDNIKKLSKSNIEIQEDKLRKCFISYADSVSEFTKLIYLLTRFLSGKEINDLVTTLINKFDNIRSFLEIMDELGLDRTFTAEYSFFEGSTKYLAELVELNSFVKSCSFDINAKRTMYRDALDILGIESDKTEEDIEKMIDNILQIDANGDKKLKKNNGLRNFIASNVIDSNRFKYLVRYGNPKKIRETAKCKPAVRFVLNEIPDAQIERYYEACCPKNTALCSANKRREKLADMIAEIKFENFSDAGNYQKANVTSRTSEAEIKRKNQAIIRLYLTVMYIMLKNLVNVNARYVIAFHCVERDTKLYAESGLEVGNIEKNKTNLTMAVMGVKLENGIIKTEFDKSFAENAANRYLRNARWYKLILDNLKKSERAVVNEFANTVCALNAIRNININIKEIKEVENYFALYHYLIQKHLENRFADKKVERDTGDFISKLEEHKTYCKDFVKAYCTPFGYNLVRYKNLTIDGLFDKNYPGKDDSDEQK

B1: target 1 complement block 3-9 (mixed)
RNA 1: CACCCGUGCAAAAAUGCAGGGGUCUAAAACUGAGCGGAUAACCUCUCUAUGG
RNA 2: GGGAAUGGAUCCACAUCUACGAAUUCGUACCAUAGAGAGGUUUAGGCGACACCGAGAUCGGAAGAGCACACGU
B2: target 1 MT 5'PFS UAG 3'PFS AAA (mixed)
RNA 1: CACCCGUGCAAAAAUGCAGGGGUCUAAAACUGAGCGGAUAACCUCUCUAUGG
RNA 2: GGGAAUGGAUCCACAUCUACGAAUUCUAGCCAUAGAGAGGUUAUCCGCUCAAAAAGAUCGGAAGAGCACACGU
B3: target 1 insA 3' of 17,insA 3' of 4 (mixed)
RNA 1: CACCCGUGCAAAAAUGCAGGGGUCUAAAACUGAGCGGAUAACCUCUCUAUGG
RNA 2: GGGAAUGGAUCCACAUCUACGAAUUCGUACCAUAGAAGAGGUUAUCCGCAUCACCGAGAUCGGAAGAGCACACGU
B4: target 1 MT 5'PFS GGG 3'PFS UUC (mixed)
RNA 1: CACCCGUGCAAAAAUGCAGGGGUCUAAAACUGAGCGGAUAACCUCUCUAUGG
RNA 2: GGGAAUGGAUCCACAUCUACGAAUUCGGGCCAUAGAGAGGUUAUCCGCUCAUUCAGAUCGGAAGAGCACACGU
B5: target 1 U10A,G15C (mixed)
RNA 1: CACCCGUGCAAAAAUGCAGGGGUCUAAAACUGAGCGGAUAACCUCUCUAUGG
RNA 2: GGGAAUGGAUCCACAUCUACGAAUUCGUACCAUAGACAGGUAAUCCGCUCACCGAGAUCGGAAGAGCACACGU
B6: target 1 MT 5'PFS AAG 3'PFS UUC (mixed)
RNA 1: CACCCGUGCAAAAAUGCAGGGGUCUAAAACUGAGCGGAUAACCUCUCUAUGG
RNA 2: GGGAAUGGAUCCACAUCUACGAAUUCAAGCCAUAGAGAGGUUAUCCGCUCAUUCAGAUCGGAAGAGCACACGU
B7: target 1 MT 5'PFS GGG 3'PFS UUU (mixed)
RNA 1: CACCCGUGCAAAAAUGCAGGGGUCUAAAACUGAGCGGAUAACCUCUCUAUGG
RNA 2: GGGAAUGGAUCCACAUCUACGAAUUCGGGCCAUAGAGAGGUUAUCCGCUCAUUUAGAUCGGAAGAGCACACGU
B8: target 1 MT 5'PFS UAG 3'PFS AAG (mixed)
RNA 1: CACCCGUGCAAAAAUGCAGGGGUCUAAAACUGAGCGGAUAACCUCUCUAUGG
RNA 2: GGGAAUGGAUCCACAUCUACGAAUUCUAGCCAUAGAGAGGUUAUCCGCUCAAAGAGAUCGGAAGAGCACACGU
B9: target 1 insC 3' of 16,insA 3' of 8 (mixed)
RNA 1: CACCCGUGCAAAAAUGCAGGGGUCUAAAACUGAGCGGAUAACCUCUCUAUGG
RNA 2: GGGAAUGGAUCCACAUCUACGAAUUCGUACCAUAGACGAGGUUAUACCGCUCACCGAGAUCGGAAGAGCACACGU
B10: target 1 MT 5'PFS GGG 3'PFS UUG (mixed)
RNA 1: CACCCGUGCAAAAAUGCAGGGGUCUAAAACUGAGCGGAUAACCUCUCUAUGG
RNA 2: GGGAAUGGAUCCACAUCUACGAAUUCGGGCCAUAGAGAGGUUAUCCGCUCAUUGAGAUCGGAAGAGCACACGU
B11: target 1 MT 5'PFS GGG 3'PFS UUA (mixed)
RNA 1: CACCCGUGCAAAAAUGCAGGGGUCUAAAACUGAGCGGAUAACCUCUCUAUGG
RNA 2: GGGAAUGGAUCCACAUCUACGAAUUCGGGCCAUAGAGAGGUUAUCCGCUCAUUAAGAUCGGAAGAGCACACGU
B12: target 1 MT 5'PFS UAG 3'PFS AAC (mixed)
RNA 1: CACCCGUGCAAAAAUGCAGGGGUCUAAAACUGAGCGGAUAACCUCUCUAUGG
RNA 2: GGGAAUGGAUCCACAUCUACGAAUUCUAGCCAUAGAGAGGUUAUCCGCUCAAACAGAUCGGAAGAGCACACGU
B13: target 1 MT 5'PFS AAG 3'PFS UUG (mixed)
RNA 1: CACCCGUGCAAAAAUGCAGGGGUCUAAAACUGAGCGGAUAACCUCUCUAUGG
RNA 2: GGGAAUGGAUCCACAUCUACGAAUUCAAGCCAUAGAGAGGUUAUCCGCUCAUUGAGAUCGGAAGAGCACACGU

The data set addresses T1, EsCas13d, nuclease-dead. Kind of data set: crRNA (strand 1, pre-loaded); Mg2+; 40 mM Tris-HCl pH 7.5, 150 mM NaCl, 6 mM MgCl2, 1 mM DTT, 0.1% Tween-20, 0.2 mg/ml BSA; 25 C; 10 min per concentration, then washed. Particulars: tags: His6-TwinStrep-SUMO cleaved; N-terminal SNAP kept (SNAP-Surface 488); label: 3' end held by stalled T7 RNA polymerase.
As for B1, the Kd (in general, a measure of binding affinity in units of concentration) amounted to 8.8 ± 0.4 nM.

Molecule B2 yielded a Kd of 34 ± 7 nM.

On to B3, for which the Kd is 10 ± 0.7 nM.

The molecule B4 gave an equilibrium dissociation constant (Kd) of 16.4 ± 1.95 nM.

As to B5, the Kd was found to be 98 ± 17 nM.

B6 displayed a Kd of 16 ± 6 nM.

As for B7, the Kd worked out at 14.7 ± 2.05 nM.

B8 came in with an equilibrium dissociation constant (Kd) of 45.5 ± 13 nM.

Regarding B9, the Kd was 56 ± 12 nM.

B10 came in with a Kd of 7.3 ± 0.45 nM. This Kd is about 7.7-fold lower than that of the molecule before.

Regarding B11, the Kd came out at 16.8 ± 2.55 nM.

For B12, the Kd turned out to be 34 ± 6 nM. This Kd is about 2-fold higher than that of the molecule before.

For B13, the Kd was found to be 13.5 ± 2 nM.
